This test addresses 人HER3胞外区蛋白 (human HER3 extracellular region protein) (human) (UniProt P21860). Nature of the test: ELISA; human HER3 extracellular region coated at 2 μg/mL, scFv at 2 μg/mL, detected with HRP anti-6×His Tag antibody, TMB, triplicate wells (mean ± deviation).

B1: 抗HER3单链抗体 (anti-HER3-scFv) (scFv)
scFv: QVQLVESGGGLVQPGGSLRLSCAASGFTFSSYAMSWVRQAPGKGLEWVSAINSQGKSTYYADSVKGRFTISRDNSKNTLYLQMNSLRAEDTAVYYCARWGDEGFDIWGQGTLVTVSSGGGGSGGGGSGGGGSDIQMTQSPSSLSASVGDRVTITCRASQGISNWLAWYQQKPGKAPKLLIYGASSLQSGVPSRFSGSGSGTDFTLTISSLQPEDFAVYYCQQYSSFPTTFGQGTKVEIK
The molecule B1 displayed a 吸光度(A450)均值 of 0.961 A450.

(Values after patent publication CN110760003A.)
